Starred links: 1 amine or outer side, 2 acyl side, 3 side chain; linkers in the order of their positions; H or OH if unused. Positions of bridges follow the written chain, without caps; N, C: chain ends. Non-standard residues stand in square brackets, D forms with d. dTyr(4-OMe) = O-methyl-D-tyrosine (4-OMe), COc1ccc(C[C@@H](N[*:1])C(=O)[*:2])cc1; dPhe(4-Br) = N[C@H](Cc1ccc(Br)cc1)C(=O)O; 1Nal = N[C@@H](Cc1cccc2ccccc12)C(=O)O; d1Nal = N[C@H](Cc1cccc2ccccc12)C(=O)O; 2Pal = N[C@@H](Cc1ccccn1)C(=O)O; 3Pal = N[C@@H](Cc1cccnc1)C(=O)O; 4Pal = N[C@@H](Cc1ccncc1)C(=O)O; Cit = NC(=O)NCCC[C@H](N)C(=O)O; Nle = CCCC[C@H](N)C(=O)O; Orn = NCCC[C@H](N)C(=O)O; Aib = CC(C)(N)C(=O)O
B1: CTX-1617 (peptide)
peptide: Ac-R[Nle]C[Orn][dF]RWC-NH2
modifications: disulfide 3-8
SMILES: CCCC[C@H](NC(=O)[C@H](CCCNC(=N)N)NC(C)=O)C(=O)N[C@H]1CSSC[C@@H](C(N)=O)NC(=O)[C@H](Cc2c[nH]c3ccccc23)NC(=O)[C@H](CCCNC(=N)N)NC(=O)[C@@H](Cc2ccccc2)NC(=O)[C@H](CCCN)NC1=O
B2: CTX-1626 (peptide)
peptide: Ac-R[Nle]C[Cit][dF]RFC-NH2
modifications: disulfide 3-8
SMILES: CCCC[C@H](NC(=O)[C@H](CCCNC(=N)N)NC(C)=O)C(=O)N[C@H]1CSSC[C@@H](C(N)=O)NC(=O)[C@H](Cc2ccccc2)NC(=O)[C@H](CCCNC(=N)N)NC(=O)[C@@H](Cc2ccccc2)NC(=O)[C@H](CCCNC(N)=O)NC1=O
B3: CTX-1620 (peptide)
peptide: Ac-R[Nle]C[3Pal][dF]RWC-NH2
modifications: disulfide 3-8
SMILES: CCCC[C@H](NC(=O)[C@H](CCCNC(=N)N)NC(C)=O)C(=O)N[C@H]1CSSC[C@@H](C(N)=O)NC(=O)[C@H](Cc2c[nH]c3ccccc23)NC(=O)[C@H](CCCNC(=N)N)NC(=O)[C@@H](Cc2ccccc2)NC(=O)[C@H](Cc2cccnc2)NC1=O
B4: CTX-1622 (peptide)
peptide: Ac-R[Nle]CR[dF]RFC-NH2
modifications: disulfide 3-8
SMILES: CCCC[C@H](NC(=O)[C@H](CCCNC(=N)N)NC(C)=O)C(=O)N[C@H]1CSSC[C@@H](C(N)=O)NC(=O)[C@H](Cc2ccccc2)NC(=O)[C@H](CCCNC(=N)N)NC(=O)[C@@H](Cc2ccccc2)NC(=O)[C@H](CCCNC(=N)N)NC1=O
B5: CTX-1609 (peptide)
peptide: Ac-R[Nle]C[Cit]FRWC-NH2
modifications: disulfide 3-8
SMILES: CCCC[C@H](NC(=O)[C@H](CCCNC(=N)N)NC(C)=O)C(=O)N[C@H]1CSSC[C@@H](C(N)=O)NC(=O)[C@H](Cc2c[nH]c3ccccc23)NC(=O)[C@H](CCCNC(=N)N)NC(=O)[C@H](Cc2ccccc2)NC(=O)[C@H](CCCNC(N)=O)NC1=O
B6: CTX-1628 (peptide)
peptide: Ac-C[dA][Cit][dF]RWC-NH2
modifications: disulfide 1-7
SMILES: CC(=O)N[C@H]1CSSC[C@@H](C(N)=O)NC(=O)[C@H](Cc2c[nH]c3ccccc23)NC(=O)[C@H](CCCNC(=N)N)NC(=O)[C@@H](Cc2ccccc2)NC(=O)[C@H](CCCNC(N)=O)NC(=O)[C@@H](C)NC1=O
B7: CTX-1605 (peptide)
peptide: Ac-RC[Aib][3Pal][dF]RFC-NH2
modifications: disulfide 2-8
SMILES: CC(=O)N[C@@H](CCCNC(=N)N)C(=O)N[C@H]1CSSC[C@@H](C(N)=O)NC(=O)[C@H](Cc2ccccc2)NC(=O)[C@H](CCCNC(=N)N)NC(=O)[C@@H](Cc2ccccc2)NC(=O)[C@H](Cc2cccnc2)NC(=O)C(C)(C)NC1=O
B8: CTX-1627 (peptide)
peptide: Ac-C[dA]R[dF]RWC-NH2
modifications: disulfide 1-7
SMILES: CC(=O)N[C@H]1CSSC[C@@H](C(N)=O)NC(=O)[C@H](Cc2c[nH]c3ccccc23)NC(=O)[C@H](CCCNC(=N)N)NC(=O)[C@@H](Cc2ccccc2)NC(=O)[C@H](CCCNC(=N)N)NC(=O)[C@@H](C)NC1=O
B9: CTX-1623 (peptide)
peptide: Ac-R[Nle]CR[dPhe(4-Br)]RFC-NH2
modifications: disulfide 3-8
SMILES: CCCC[C@H](NC(=O)[C@H](CCCNC(=N)N)NC(C)=O)C(=O)N[C@H]1CSSC[C@@H](C(N)=O)NC(=O)[C@H](Cc2ccccc2)NC(=O)[C@H](CCCNC(=N)N)NC(=O)[C@@H](Cc2ccc(Br)cc2)NC(=O)[C@H](CCCNC(=N)N)NC1=O
B10: CTX-1611 (peptide)
peptide: Ac-R[Nle]CR[d1Nal]RWC-NH2
modifications: disulfide 3-8
SMILES: CCCC[C@H](NC(=O)[C@H](CCCNC(=N)N)NC(C)=O)C(=O)N[C@H]1CSSC[C@@H](C(N)=O)NC(=O)[C@H](Cc2c[nH]c3ccccc23)NC(=O)[C@H](CCCNC(=N)N)NC(=O)[C@@H](Cc2cccc3ccccc23)NC(=O)[C@H](CCCNC(=N)N)NC1=O
B11: CTX-1608 (peptide)
peptide: Ac-R[Nle]C[Cit][dF]R[dW]C-NH2
modifications: disulfide 3-8
SMILES: CCCC[C@H](NC(=O)[C@H](CCCNC(=N)N)NC(C)=O)C(=O)N[C@H]1CSSC[C@@H](C(N)=O)NC(=O)[C@@H](Cc2c[nH]c3ccccc23)NC(=O)[C@H](CCCNC(=N)N)NC(=O)[C@@H](Cc2ccccc2)NC(=O)[C@H](CCCNC(N)=O)NC1=O
B12: CTX-1619 (peptide)
peptide: Ac-R[Nle]C[2Pal][dF]RWC-NH2
modifications: disulfide 3-8
SMILES: CCCC[C@H](NC(=O)[C@H](CCCNC(=N)N)NC(C)=O)C(=O)N[C@H]1CSSC[C@@H](C(N)=O)NC(=O)[C@H](Cc2c[nH]c3ccccc23)NC(=O)[C@H](CCCNC(=N)N)NC(=O)[C@@H](Cc2ccccc2)NC(=O)[C@H](Cc2ccccn2)NC1=O
B13: CTX-1624 (peptide)
peptide: Ac-R[Nle]CR[dTyr(4-OMe)]RFC-NH2
modifications: disulfide 3-8
SMILES: CCCC[C@H](NC(=O)[C@H](CCCNC(=N)N)NC(C)=O)C(=O)N[C@H]1CSSC[C@@H](C(N)=O)NC(=O)[C@H](Cc2ccccc2)NC(=O)[C@H](CCCNC(=N)N)NC(=O)[C@@H](Cc2ccc(OC)cc2)NC(=O)[C@H](CCCNC(=N)N)NC1=O
B14: CTX-1606 (peptide)
peptide: Ac-RC[Aib][4Pal][dF]RFC-NH2
modifications: disulfide 2-8
SMILES: CC(=O)N[C@@H](CCCNC(=N)N)C(=O)N[C@H]1CSSC[C@@H](C(N)=O)NC(=O)[C@H](Cc2ccccc2)NC(=O)[C@H](CCCNC(=N)N)NC(=O)[C@@H](Cc2ccccc2)NC(=O)[C@H](Cc2ccncc2)NC(=O)C(C)(C)NC1=O
B15: CTX-1621 (peptide)
peptide: Ac-R[Nle]C[4Pal][dF]RWC-NH2
modifications: disulfide 3-8
SMILES: CCCC[C@H](NC(=O)[C@H](CCCNC(=N)N)NC(C)=O)C(=O)N[C@H]1CSSC[C@@H](C(N)=O)NC(=O)[C@H](Cc2c[nH]c3ccccc23)NC(=O)[C@H](CCCNC(=N)N)NC(=O)[C@@H](Cc2ccccc2)NC(=O)[C@H](Cc2ccncc2)NC1=O
B16: CTX-1610 (peptide)
peptide: Ac-R[Nle]CH[1Nal]RWC-NH2
modifications: disulfide 3-8
SMILES: CCCC[C@H](NC(=O)[C@H](CCCNC(=N)N)NC(C)=O)C(=O)N[C@H]1CSSC[C@@H](C(N)=O)NC(=O)[C@H](Cc2c[nH]c3ccccc23)NC(=O)[C@H](CCCNC(=N)N)NC(=O)[C@H](Cc2cccc3ccccc23)NC(=O)[C@H](Cc2c[nH]cn2)NC1=O

Target: human MC3R (human, UniProt P41968 1-323)
Experiment: cell-based or functional assay

human MC3R, sequence (P41968 whole entry): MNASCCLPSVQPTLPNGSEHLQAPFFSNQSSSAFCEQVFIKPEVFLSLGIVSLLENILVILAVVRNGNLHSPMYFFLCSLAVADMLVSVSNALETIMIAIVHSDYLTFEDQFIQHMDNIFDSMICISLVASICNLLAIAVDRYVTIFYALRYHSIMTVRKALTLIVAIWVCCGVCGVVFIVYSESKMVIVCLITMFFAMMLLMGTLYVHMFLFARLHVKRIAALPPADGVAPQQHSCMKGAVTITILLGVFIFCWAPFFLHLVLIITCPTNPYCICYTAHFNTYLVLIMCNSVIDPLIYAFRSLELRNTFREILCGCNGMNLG

Row | Binder | % max activation | cAMP EC50
1 | B1 | 102% | 2.3 nM
2 | B2 | 51% | 678 nM
3 | B3 | 39% | 58 nM
4 | B4 | 100% | 13 nM
5 | B5 | 65% | 407 nM
6 | B6 | 45% | 92 nM
7 | B7 |  | > 10000 nM
8 | B8 | 98% | 3.7 nM
9 | B9 | 62% | 3.9 nM
10 | Ac-R[Nle]CR[dF]R[dW]C-NH2 (disulfide 3-8) [CTX-1616] | 78% | 61 nM
11 | B10 | 58% | 11 nM
12 | B11 | 19% | 274 nM
13 | B12 | 84% | 33 nM
14 | B13 | 66% | 5.6 nM
15 | B14 | 7.69% | 82 nM
16 | B15 | 15% | 36 nM
17 | B16 | 67% | 163 nM

Target: T1, human MC4R receptor (human, UniProt P32245 1-332)
Experiment: cell-based or functional assay

T1 sequence (P32245 whole entry): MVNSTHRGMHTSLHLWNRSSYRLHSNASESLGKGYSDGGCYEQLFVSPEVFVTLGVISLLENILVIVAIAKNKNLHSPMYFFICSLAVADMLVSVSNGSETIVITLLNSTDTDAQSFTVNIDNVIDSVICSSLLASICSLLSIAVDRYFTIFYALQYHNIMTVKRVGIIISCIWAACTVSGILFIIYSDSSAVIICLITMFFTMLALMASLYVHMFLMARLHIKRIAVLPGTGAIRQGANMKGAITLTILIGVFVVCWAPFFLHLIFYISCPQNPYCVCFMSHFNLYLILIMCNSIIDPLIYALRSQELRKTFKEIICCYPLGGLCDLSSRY

Row | Binder | % max activation | cAMP EC50
18 | B1 | 102% | 0.21 nM
19 | B2 | 83% | 425 nM
20 | B3 | 91% | 4.7 nM
21 | B4 | 101% | 41 nM
22 | B5 | 96% | 86 nM
23 | B6 | 99% | 14 nM
24 | B7 | 85% | 33 nM
25 | B8 | 104% | 1.4 nM
26 | B9 | 73% | 1.7 nM
27 | Ac-R[Nle]CR[dF]R[dW]C-NH2 (disulfide 3-8) [CTX-1616] | 93% | 16 nM
28 | B10 | 67% | 1.6 nM
29 | B11 | 79% | 288 nM
30 | B12 | 99% | 2.6 nM
31 | B13 | 83% | 12 nM
32 | B14 | 92% | 133 nM
33 | B15 | 92% | 2.9 nM
34 | B16 | 90% | 247 nM

Target: T1, human MC4R receptor
Experiment: cell-based or functional assay
Remark: another data set of the same source

Row | Binder | MC4R selectivity vs MC1R | MC4R selectivity vs MC3R
35 | B1 | 1.75 | 11
36 | B2 | 3.05 | 1.6
37 | B3 | 47 | 12
38 | B4 | 0.39 | 0.32
39 | B5 | 4.15 | 4.72
40 | B6 | 191 | 6.37
41 | B7 | 0.14 | > 300
42 | B8 | 9.33 | 2.47
43 | B9 | 1.08 | 2.29
44 | Ac-R[Nle]CR[dF]R[dW]C-NH2 (disulfide 3-8) [CTX-1616] | 1.51 | 3.78
45 | B10 | 0.25 | 6.61
46 | B11 | 2.07 | 0.95
47 | B12 | 86 | 13
48 | B13 | 0.15 | 0.47
49 | B14 | 2.99 | 0.62
50 | B15 | 82 | 13
51 | B16 | 0.03 | 0.66

Source: patent US20240391954A1, “MC4R AGONIST PEPTIDES” (The Regents of the University of Michigan, priority 2021, published 2024)
